Patent US20230212222A1 (ANYGEN CO., LTD., priority 2020, published 2023)
Square brackets hold non-standard residues; d marks the D form. Ends that are not written are not given here. Peptide text beside a SMILES is read from it. * marks the point of attachment. His(Trt) = N[C@@H](Cc1cn(C(c2ccccc2)(c2ccccc2)c2ccccc2)cn1)C(=O)O; Biotin = O=C1N[C@H]2[C@H](CS[C@H]2CCCCC(=O)*)N1; Bip = N[C@@H](Cc1ccc(-c2ccccc2)cc1)C(=O)O; dPhe(4-Cl) = N[C@H](Cc1ccc(Cl)cc1)C(=O)O; Trt = c1ccc(C(c2ccccc2)(c2ccccc2)*)cc1; Octanoyl = CCCCCCCC(=O)*

T1: GPR39 (Homo sapiens, UniProt O43194)
T1 sequence (O43194 1-453): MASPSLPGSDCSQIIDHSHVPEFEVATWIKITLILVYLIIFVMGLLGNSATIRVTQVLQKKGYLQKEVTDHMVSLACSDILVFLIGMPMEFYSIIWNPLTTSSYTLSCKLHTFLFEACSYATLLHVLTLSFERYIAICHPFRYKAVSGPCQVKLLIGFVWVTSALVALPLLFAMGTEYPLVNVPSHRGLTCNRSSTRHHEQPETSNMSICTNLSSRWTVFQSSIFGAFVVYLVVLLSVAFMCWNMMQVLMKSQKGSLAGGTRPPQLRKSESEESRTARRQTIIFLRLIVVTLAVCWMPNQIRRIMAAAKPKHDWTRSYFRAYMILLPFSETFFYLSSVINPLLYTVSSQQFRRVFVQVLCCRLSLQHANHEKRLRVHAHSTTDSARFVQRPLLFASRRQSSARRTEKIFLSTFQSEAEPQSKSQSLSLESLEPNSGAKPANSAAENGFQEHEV

T2: GPR39 (G protein-coupled receptor 39) (Homo sapiens (Human), UniProt O43194 1-453)
T2 sequence: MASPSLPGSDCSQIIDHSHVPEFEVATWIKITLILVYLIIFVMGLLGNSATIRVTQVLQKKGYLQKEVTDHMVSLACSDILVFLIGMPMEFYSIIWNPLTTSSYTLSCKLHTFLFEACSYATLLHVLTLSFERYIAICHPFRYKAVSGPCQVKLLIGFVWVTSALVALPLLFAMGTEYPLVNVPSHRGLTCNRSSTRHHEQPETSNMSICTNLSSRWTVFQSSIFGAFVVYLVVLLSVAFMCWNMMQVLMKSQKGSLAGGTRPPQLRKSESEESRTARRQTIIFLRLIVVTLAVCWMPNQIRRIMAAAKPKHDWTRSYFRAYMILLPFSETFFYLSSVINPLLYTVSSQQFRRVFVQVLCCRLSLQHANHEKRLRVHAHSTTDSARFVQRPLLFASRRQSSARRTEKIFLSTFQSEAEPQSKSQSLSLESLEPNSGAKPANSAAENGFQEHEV

B1: HKFY-40 (peptide)
peptide: H(Trt)K(Octanoyl)FYSHQQARF
modifications: not fully specified; printed as His(trt)-Lys(caprylic)-Phe-Tyr-Ser-His-Gln-Gln-Ala-Arg-Phe
B2: HKFY-42 (peptide)
peptide: H(Trt)K(Octanoyl)FYHQQARF
modifications: not fully specified; printed as His(trt)-Lys(caprylic)-Phe-Tyr-His-Gln-Gln-Ala-Arg-Phe
B3: HKFY-39 (peptide)
peptide: H(Trt)K(Octanoyl)FYSQNGARF
modifications: not fully specified; printed as His(trt)-Lys(caprylic)-Phe-Tyr-Ser-Gln-Asn-Gly-Ala-Arg-Phe
B4: HKFY-43 (peptide)
peptide: H(Trt)K(Octanoyl)FYQNQARF
modifications: not fully specified; printed as His(trt)-Lys(caprylic)-Phe-Tyr-Gln-Asn-Gln-Ala-Arg-Phe

How the values were obtained:
GPR39 = biological target: T1, GPR39
Procedure: Specifically, the fibroblast cell line CV-1 (1×10^5 cells/ml, Korea Cell Line Bank) was cultured in a 96 well cell culture plate for 24 hours, and then treated with GPR39 inserted into adenovirus and SRE (serum response element) luciferase at 50 MOI (multiplicity of infection) and 25 MOI virus for 3 hours, respectively, and then cultured for 24 hours.

[1] = biological target: T2, GPR39 (G protein-coupled receptor 39); assay: cell-based or functional assay

| Molecule | ECmax (-fold induction over basal) (GPR39) | EC50 (luciferase reporter) [1] | ECmax (-fold induction over basal) [1] |
| --- | --- | --- | --- |
| CCCCCCCC(=O)NCCCC[C@H](NC(=O)[C@@H](N)Cc1cn(CCc2ccccc2)cn1)C(=O)N[C@@H](Cc1ccccc1)C(=O)N[C@@H](Cc1ccc(O)cc1)C(=O)O [HKFY-19, N6-octanoyl-N2-(Nt-phenethyl-L-histidyl)-L-lysyl-L-phenylalanyl-L-tyrosine] | 18 ± 1.7 -fold induction over basal | – | – |
| CCCCCCCC(=O)NCCCC[C@H](NC(=O)[C@@H](N)Cc1cn(CCc2ccccc2)cn1)C(=O)N[C@@H](Cc1ccccc1)C(=O)N[C@@H](Cc1ccc(O)cc1)C(=O)O [HKFY-9, N6-octanoyl-N2-(Nt-phenethyl-L-histidyl)-L-lysyl-L-phenylalanyl-L-tyrosine] | 21 ± 2.52 -fold induction over basal | – | – |
| CCCCCCCC(=O)NCCCC[C@H](NC(=O)[C@@H](N)Cc1cn(C(c2ccccc2)(c2ccccc2)c2ccccc2)cn1)C(=O)N[C@H](Cc1ccc(Cl)cc1)C(=O)N[C@H](Cc1ccc(O)cc1)C(=O)O [HKFY-15, ((R)-2-((S)-2-((S)-2-amino-3-(1-trityl-1H-imidazol-4-yl)propanamido)-6-octanamidohexanamido)-3-(4-chlorophenyl)propanoyl)-D-tyrosine] (H-[His(Trt)]K(Octanoyl)[dPhe(4-Cl)][dY]-OH) | 24.7 ± 2.6 -fold induction over basal | – | – |
| CCCCCCCC(=O)NCCCC[C@H](NC(=O)[C@@H](N)Cc1cn(C(c2ccccc2)(c2ccccc2)c2ccccc2)cn1)C(=O)N[C@@H](Cc1ccccc1)C(=O)O [HKFY-49, N6-octanoyl-N2-(Nt-trityl-L-histidyl)-L-lysyl-L-phenylalanine] (H-[His(Trt)]-Lys(Octanoyl)-Phe-OH) | 18.3 ± 1.8 -fold induction over basal | – | – |
| CCCCCCCC(=O)NCCCC[C@H](NC(=O)[C@@H](N)Cc1cn(C(c2ccccc2)(c2ccccc2)c2ccccc2)cn1)C(=O)N[C@@H](CC(C)C)C(=O)N[C@@H](Cc1ccc(O)cc1)C(=O)O [HKFY-51, N6-octanoyl-N2-(Nt-trityl-L-histidyl)-L-lysyl-L-leucyl-L-tyrosine] (H-[His(Trt)]K(Octanoyl)LY-OH) | 14.4 ± 1.9 -fold induction over basal | – | – |
| CCCCCCCC(=O)NCCCC[C@H](NC(=O)[C@@H](N)Cc1cn(C(c2ccccc2)(c2ccccc2)c2ccccc2)cn1)C(=O)N[C@@H](Cc1ccccc1)C(=O)N[C@@H](Cc1ccc(O)cc1)C(=O)N[C@@H](Cc1c[nH]c2ccccc12)C(=O)O [HKFY-44, N6-octanoyl-N2-(Nt-trityl-L-histidyl)-L-lysyl-L-phenylalanyl-L-tyrosyl-L-tryptophan] (H-[His(Trt)]K(Octanoyl)FYW-OH) | 20 ± 0.47 -fold induction over basal | – | – |
| CCCCCCCC(=O)NCCCC[C@H](NC(=O)[C@@H](N)Cc1cn(-c2ccccc2)c(-c2ccccc2)n1)C(=O)N[C@H](Cc1ccc(C)cc1)C(=O)N[C@@H](Cc1ccc(O)cc1)C(=O)O [HKFY-59, ((R)-2-((S)-2-((S)-2-amino-3-(1,2-diphenyl-1H-imidazol-4-yl)propanamido)-6-octanamidohexanamido)-3-(p-tolyl)propanoyl)-L-tyrosine] | 6.76 ± 2.2 -fold induction over basal | – | – |
| CCCCCCCC(=O)NCCCC[C@H](NC(=O)[C@@H](N)Cc1cn(C(c2ccccc2)(c2ccccc2)c2ccccc2)cn1)C(=O)N[C@@H](Cc1ccc(O)cc1)C(=O)N[C@@H](Cc1ccc(O)cc1)C(=O)O [HKFY-48, N6-octanoyl-N2-(Nt-trityl-L-histidyl)-L-lysyl-L-tyrosyl-L-tyrosine] (H-[His(Trt)]K(Octanoyl)YY-OH) | 14.4 ± 2.7 -fold induction over basal | – | – |
| CCCCCCCC(=O)NCCCC[C@H](NC(=O)[C@@H](N)Cc1cn(C(c2ccccc2)c2ccc(OC)cc2)cn1)C(=O)N[C@@H](Cc1ccccc1)C(=O)N[C@@H](Cc1ccc(O)cc1)C(=O)O (stereo partly drawn) [HKFY-20, N2-(Nt-((4-methoxyphenyl)(phenyl)methyl)-L-histidyl)-N6-octanoyl-L-lysyl-L-phenylalanyl-L-tyrosine] | 20.26 ± 2.7 -fold induction over basal | – | – |
| CCCCCCCC(=O)NCCCC[C@H](NC(=O)[C@@H](N)Cc1cn(S(=O)(=O)c2ccc(C)cc2)cn1)C(=O)N[C@H](Cc1ccc(C)cc1)C(=O)N[C@@H](Cc1ccc(O)cc1)C(=O)O [HKFY-75, ((R)-2-((S)-2-((S)-2-amino-3-(1-tosyl-1H-imidazol-4-yl)propanamido)-6-octanamidohexanamido)-3-(p-tolyl)propanoyl)-L-tyrosine] | 15.9 ± 4.12 -fold induction over basal | – | – |
| H(Trt)K(Octanoyl)FYW [HKFY-44] | – | 370 nM | 20 -fold induction over basal |
| His(Trt)-Lys(Octanoyl)-Phe [HKFY-49] | – | 320 nM | 18.3 -fold induction over basal |
| H(Trt)K(Octanoyl)YY [HKFY-48] | – | 330 nM | 14.4 -fold induction over basal |
| B1 | – | 1300 nM | 13.4 -fold induction over basal |
| H(Trt)K(Octanoyl)FW [HKFY-46] | – | 260 nM | 20 -fold induction over basal |
| B2 | – | 1580 nM | 11.8 -fold induction over basal |
| B3 | – | – | 12.1 -fold induction over basal |
| H(Trt)K(Octanoyl)YF [HKFY-47] | – | 300 nM | 13 -fold induction over basal |
| Biotin-H(Trt)K(Octanoyl)[Bip]Y [HKFY-45] | – | 140 nM | 21 -fold induction over basal |
| B4 | – | 1210 nM | 12.1 -fold induction over basal |
| H(Trt)K(Octanoyl)FYQNGARF [HKFY-41] | – | 9550 nM | 12.2 -fold induction over basal |
